In the data set the test system is Escherichia coli TOP10. The data set can be described thus: shrunken log2 fold change of peptide-encoding DNA abundance (4.5 h post-induction vs induction); higher = less antimicrobial activity (less host growth inhibition). As to conditions: time post-induction: 4.5 h; library: site-saturation at positions 5, 18, 19, 20.
As for RRIRDRPPRLPRPRPRPDYKPRP, the “shrunken log2 fold change” value turned out to be 0.00454. The value for RRIRFRPPRLPRPRPRPWWYPRP was -0.238. Take RRIRNRPPRLPRPRPRPEDTPRP: the “shrunken log2 fold change” value was -0.0307. With RRIRMRPPRLPRPRPRPKPRPRP the figure was 1.63; with RRIRHRPPRLPRPRPRPCSHPRP, -0.0787.

In the case of RRIRGRPPRLPRPRPRPIQSPRP, the “shrunken log2 fold change” value was -0.0426.

RRIRDRPPRLPRPRPRPWRTPRP: the “shrunken log2 fold change” value is -0.0162. The value for RRIRDRPPRLPRPRPRPKGQPRP was 0.116. With RRIRIRPPRLPRPRPRPENCPRP the figure was -0.00941.

With RRIRPRPPRLPRPRPRPFGNPRP, the “shrunken log2 fold change” value was -0.146. On to RRIRRRPPRLPRPRPRPINQPRP, for which the “shrunken log2 fold change” value stood at 0.0137.

Consider RRIRLRPPRLPRPRPRPDIYPRP, for which the “shrunken log2 fold change” value is -0.458.

In the case of RRIRNRPPRLPRPRPRPTTPPRP, the “shrunken log2 fold change” value was determined as 0.152. With RRIRSRPPRLPRPRPRPNWIPRP, the “shrunken log2 fold change” value is -0.659.

As for RRIRWRPPRLPRPRPRPKMGPRP, the “shrunken log2 fold change” value was 0.0381.

RRIRSRPPRLPRPRPRPNLWPRP: the “shrunken log2 fold change” value is -0.075. The value for RRIRYRPPRLPRPRPRPYSPPRP was -0.0311; that for RRIRHRPPRLPRPRPRPKWCPRP was -0.142; that for RRIRRRPPRLPRPRPRPGQWPRP was 0.312.

In the case of RRIRRRPPRLPRPRPRPVDSPRP, the “shrunken log2 fold change” value is 0.127. The value for RRIRFRPPRLPRPRPRPNKHPRP was -0.348; that for RRIRNRPPRLPRPRPRPHFYPRP was -0.816; that for RRIRERPPRLPRPRPRPEISPRP was -0.407.

Turning to RRIRVRPPRLPRPRPRPLQTPRP, the “shrunken log2 fold change” value came to 0.158. The value for RRIRSRPPRLPRPRPRPPTTPRP was 0.391; that for RRIRVRPPRLPRPRPRPCWLPRP was -0.0153.

In the case of RRIRRRPPRLPRPRPRPYTEPRP, the “shrunken log2 fold change” value is -0.452. With RRIRPRPPRLPRPRPRPLWAPRP the figure was 0.343. With RRIRPRPPRLPRPRPRPGLRPRP the figure was 3.24; with RRIRRRPPRLPRPRPRPEAEPRP, 0.853; with RRIRCRPPRLPRPRPRPNARPRP, 0.00577. The value for RRIRWRPPRLPRPRPRPFIRPRP was 0.0247; that for RRIRRRPPRLPRPRPRPHRFPRP was -0.0954; that for RRIRLRPPRLPRPRPRPCGHPRP was -0.0228. As for RRIRYRPPRLPRPRPRPVSKPRP, the “shrunken log2 fold change” value is -0.069. The value for RRIRNRPPRLPRPRPRPTYHPRP was -0.526. The value for RRIRSRPPRLPRPRPRPWDPPRP was 0.0317; that for RRIRLRPPRLPRPRPRPLPSPRP was 3.98.

RRIRNRPPRLPRPRPRPILMPRP: the “shrunken log2 fold change” value is -0.0495. With RRIRSRPPRLPRPRPRPWFGPRP the figure was -0.124. As for RRIRFRPPRLPRPRPRPFRAPRP, the “shrunken log2 fold change” value was 0.0466. The value for RRIRLRPPRLPRPRPRPFFQPRP was 0.152; that for RRIRNRPPRLPRPRPRPWVHPRP was -0.288; that for RRIRCRPPRLPRPRPRPTKLPRP was -0.132. Regarding RRIRLRPPRLPRPRPRPLKAPRP, the “shrunken log2 fold change” value was -0.153. The value for RRIRNRPPRLPRPRPRPHHKPRP was -0.461; that for RRIRWRPPRLPRPRPRPRAIPRP was 0.539; that for RRIRLRPPRLPRPRPRPLGSPRP was -0.00618. With RRIRDRPPRLPRPRPRPEINPRP the figure was 0.648. With RRIRNRPPRLPRPRPRPWVSPRP the figure was 0.069.

Take RRIRARPPRLPRPRPRPRKMPRP: the “shrunken log2 fold change” value was 0.521. As for RRIRIRPPRLPRPRPRPVACPRP, the “shrunken log2 fold change” value was -0.154. With RRIRRRPPRLPRPRPRPCFTPRP, the “shrunken log2 fold change” value was -0.156. With RRIRQRPPRLPRPRPRPEFCPRP the figure was 0.0723; with RRIRCRPPRLPRPRPRPLEWPRP, 0.0823; with RRIRRRPPRLPRPRPRPRPDPRP, 0.855. The value for RRIRERPPRLPRPRPRPKCIPRP was -0.464; that for RRIRFRPPRLPRPRPRPCVFPRP was -0.0936; that for RRIRFRPPRLPRPRPRPPLFPRP was 0.273. The value for RRIRNRPPRLPRPRPRPMYKPRP was 0.0573.

Regarding RRIRQRPPRLPRPRPRPWRDPRP, the “shrunken log2 fold change” value was 0.19. Consider RRIRPRPPRLPRPRPRPVMDPRP, for which the “shrunken log2 fold change” value stood at 0.0311. For RRIRERPPRLPRPRPRPVYTPRP, the “shrunken log2 fold change” value was -0.146.

Turning to RRIRPRPPRLPRPRPRPGVSPRP, the “shrunken log2 fold change” value was -0.0412. With RRIRWRPPRLPRPRPRPWCKPRP the figure was -0.239; with RRIRERPPRLPRPRPRPFREPRP, -0.235. With RRIRMRPPRLPRPRPRPGRQPRP the figure was -0.00182; with RRIRNRPPRLPRPRPRPRMAPRP, 0.424; with RRIRFRPPRLPRPRPRPSCIPRP, -0.603. On to RRIRTRPPRLPRPRPRPWGHPRP, for which the “shrunken log2 fold change” value was -0.066. RRIRVRPPRLPRPRPRPSIFPRP: the “shrunken log2 fold change” value was -0.606.

As to RRIRRRPPRLPRPRPRPHHEPRP, the “shrunken log2 fold change” value was 0.0234. The value for RRIRIRPPRLPRPRPRPIDRPRP was 0.203.

Turning to RRIRSRPPRLPRPRPRPNGPPRP, the “shrunken log2 fold change” value is -0.42. With RRIRRRPPRLPRPRPRPRELPRP the figure was 0.887; with RRIRYRPPRLPRPRPRPCLWPRP, -0.481; with RRIRPRPPRLPRPRPRPWTTPRP, -0.012. With RRIRVRPPRLPRPRPRPDDAPRP the figure was 0.134. The value for RRIRRRPPRLPRPRPRPAQGPRP was -0.179; that for RRIRERPPRLPRPRPRPTRLPRP was 0.576. As for RRIRARPPRLPRPRPRPELNPRP, the “shrunken log2 fold change” value stood at 0.746. On to RRIRMRPPRLPRPRPRPAISPRP, for which the “shrunken log2 fold change” value came out at 0.0806. With RRIRRRPPRLPRPRPRPAVRPRP the figure was 0.0847; with RRIRIRPPRLPRPRPRPMVFPRP, -0.263; with RRIRKRPPRLPRPRPRPKCNPRP, -0.0341.

Turning to RRIRMRPPRLPRPRPRPMIDPRP, the “shrunken log2 fold change” value is -0.0842. With RRIRQRPPRLPRPRPRPAEYPRP the figure was 0.0734; with RRIRCRPPRLPRPRPRPPARPRP, 0.735; with RRIRNRPPRLPRPRPRPKAVPRP, 0.301.

In the case of RRIRVRPPRLPRPRPRPGKDPRP, the “shrunken log2 fold change” value amounted to 0.114. With RRIRHRPPRLPRPRPRPVMDPRP the figure was 0.153. With RRIRVRPPRLPRPRPRPMDGPRP the figure was 0.145; with RRIRVRPPRLPRPRPRPAMQPRP, 0.193. With RRIRPRPPRLPRPRPRPCIFPRP the figure was -0.359; with RRIRARPPRLPRPRPRPGTWPRP, 0.161. Regarding RRIRKRPPRLPRPRPRPKHPPRP, the “shrunken log2 fold change” value came out at 0.068. With RRIRCRPPRLPRPRPRPMSVPRP the figure was -0.0655. Turning to RRIRARPPRLPRPRPRPHQMPRP, the “shrunken log2 fold change” value is -0.066. The value for RRIRCRPPRLPRPRPRPVLKPRP was 0.181. With RRIRNRPPRLPRPRPRPFTEPRP the figure was -0.236; with RRIRWRPPRLPRPRPRPWSDPRP, -0.289; with RRIRQRPPRLPRPRPRPLARPRP, 0.26. With RRIRKRPPRLPRPRPRPKPDPRP the figure was 0.861; with RRIRQRPPRLPRPRPRPDIHPRP, -0.0439.

For RRIRERPPRLPRPRPRPFPIPRP, the “shrunken log2 fold change” value came out at 0.118. With RRIRFRPPRLPRPRPRPFHMPRP the figure was -0.116; with RRIRRRPPRLPRPRPRPEYLPRP, -0.0446; with RRIRCRPPRLPRPRPRPPSHPRP, -0.0142.

As to RRIRYRPPRLPRPRPRPDRSPRP, the “shrunken log2 fold change” value stood at 0.00326. The value for RRIRGRPPRLPRPRPRPNNNPRP was -0.0957. With RRIRNRPPRLPRPRPRPFYRPRP the figure was -0.131; with RRIRGRPPRLPRPRPRPHFSPRP, -0.115. With RRIRIRPPRLPRPRPRPCFIPRP the figure was -0.503; with RRIRSRPPRLPRPRPRPASGPRP, 0.268. Regarding RRIRCRPPRLPRPRPRPHIQPRP, the “shrunken log2 fold change” value was -0.73. Consider RRIRTRPPRLPRPRPRPMSRPRP, for which the “shrunken log2 fold change” value was -0.361.

In the case of RRIRWRPPRLPRPRPRPRNMPRP, the “shrunken log2 fold change” value is -0.0758.

For the sequence RRIRVRPPRLPRPRPRPMRGPRP, the “shrunken log2 fold change” value stood at 0.444. The value for RRIRQRPPRLPRPRPRPDASPRP was 0.0949; that for RRIRSRPPRLPRPRPRPLPNPRP was -0.215. With RRIRVRPPRLPRPRPRPRDCPRP the figure was 2.64. The value for RRIRKRPPRLPRPRPRPLIDPRP was 0.449. In the case of RRIRLRPPRLPRPRPRPRMLPRP, the “shrunken log2 fold change” value was -0.0478. With RRIRWRPPRLPRPRPRPNHGPRP, the “shrunken log2 fold change” value was -0.16. With RRIRKRPPRLPRPRPRPCTNPRP the figure was -0.0404.

Values taken from the supplement of paper PMC9112550, “Optimization of the antimicrobial peptide Bac7 by deep mutational scanning” (BMC Biology, 2022).
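Also: peptides expressed intracellularly from a pBAD plasmid library in pooled LB shake-flask culture, induced with 0.3% L-arabinose, DNA abundance read by NGS, three biological replicates, DESeq2 with apeglm shrinkage.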
